# B1: ADI-41477 (antibody, V domains shown)
# VH: QVQLVQSGAEVKKPGASVRVSCKASGYPFISYYIHWVRQAPGQGLEWMGMINTNGGSTHYAQKFQGRVTMTRDTSTTTIYMELSRLKSEDTAYYFCARDNTETVLHGFWSGYGSYLDYWGQGTLVTVSS
# VL: EIVLTQSPGTLSLSPGGRATLSCRASQSVTSSYLAWYQQRPGQAPRLLIYGASSRAAGIPDRFSGSGSGTDFTLTISRLEPEDFAVYYCQQYGSAPLTFGGGTKLEIK
# notes: also called Ab 760; Antibody Number 760
# B2: ADI-41488 (antibody, V domains shown)
# VH: EVQLVESGPGLVKPSETLSLTCTVSGGSINSDYWNWIRQTPGKGLEWIGYIFYSGNTNYNPSLKSRVTISIDTSKKKFSLQVTSVTAADTAVYYCARMGTLKFDFDNWGQGTLVTVSS
# VL: QSALTQPRSVSGSPGQSVTIPCTGTSSDVGAYKYVSWYQQHPGKAPKLIIYDVTKRPSGVPNRFSGSKSGNTASLTISGLQAEDEADYYCCSYAGTHTYWVFGGGTKVTVL
# notes: also called Ab 769; Antibody Number 769
# B3: ADI-41507 (antibody, V domains shown)
# VH: QVTLKESGPTLVKPTQTLRLTCTFSGFSLNVISGVGVGWIRQPPGKALEWLALIYWDDDKRYSPSLKSRLTIAKDTSKNQVVLTMTNMDPVDTATYYCAHKGGSIEAAVGFDYWGQGTLVTVSS
# VL: QSVLTQPPSVSGAPGQRVIISCTGSSSNIGAGFAVHWYQQLPGTAPKLLIYANTNRPSGVPDRFSGSKSGTSASLAITGLQAEDEADYYCQSYDTSLSGFYVFGTGTKLTVL
# B4: ADI-41465 (antibody, V domains shown)
# VH: QVQLVQSGGGVVQPGRSLRLSCAASGFTFTSYDMHWVRQAPGKGLEWVAIISHDGSKQFYADSVKGRFTISRDNSKNTLYLQMNSLRPEDTAMYYCAKDTPSWGLLAEFFRHWGQGTLVTVSS
# VL: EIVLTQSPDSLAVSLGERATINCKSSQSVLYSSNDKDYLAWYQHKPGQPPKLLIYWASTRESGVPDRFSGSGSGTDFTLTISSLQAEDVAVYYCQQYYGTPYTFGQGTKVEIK
# B5: ADI-41462 (antibody, V domains shown)
# VH: QVQLQQWGAGLVKPSETLSLSCDVYGGSFSGYYWTWIRQPPGKGLEWIGEINHSGRTNYNPSLKNRVTISVDTSKKQFSLKLSSVTAADTAVYFCARAPYYDIVTDYNITTAYFYGMDVWGQGTTVTVSS
# VL: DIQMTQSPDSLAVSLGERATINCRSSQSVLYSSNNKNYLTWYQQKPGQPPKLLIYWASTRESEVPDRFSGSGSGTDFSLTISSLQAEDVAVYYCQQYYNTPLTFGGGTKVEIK
# B6: ADI-41479 (antibody, V domains shown)
# VH: QVQLVQSGAEVKKPGESLKISCKGSGYSFISYWIGWVRQMPGKGLEWMGIIYPADSDTRYSPSFQGQVTISVDKSISTAYLQWSSLKASDTGMYYCVRYGVGGTAPRYWGQGTTVTVSS
# VL: NFMLTQPHSVSESPGKTVTISCTGSSGSIASNYVHWYQQRPGSAPTTVIYEDNQRPSGVPDRFSGSIDSSSNSASLTISGLKTEDEADYYCQSYDISNLWVFGGGTKLTVL
# B7: ADI-41544 (antibody, V domains shown)
# VH: QVQLVQSGAEVKKPGESLKISCKGSGYSFTNYWIGWVRQMPGKGLEWMGIIFPADSDTRYSPSFQGQVTISADKSVSTAYLQWTSLKASDTAIYYCARLGVAAAGGYWGQGTLVTVSS
# VL: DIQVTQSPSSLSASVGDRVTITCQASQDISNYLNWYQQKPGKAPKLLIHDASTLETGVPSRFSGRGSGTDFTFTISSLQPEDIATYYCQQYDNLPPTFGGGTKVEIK
# notes: also called Ab 816; Antibody Number 816
# B8: ADI-41458 (antibody, V domains shown)
# VH: EVQLLESGSGLVKPSQTLSLTCAVSGDSLNSALYSWSWIRQPPGKGLEWIGYIYYSGSTYYNSSLKSRVTISIDRSKNQFSLNLNSVTAADTAVYYCASLQTGYSSGWFFDFWGPGTLVTVSS
# VL: EIVLTQSPGTLSLSPGERATLSCRASQSVSRTYLTWYQQKPGQAPRLLIYGASNRATGIPDRFSGSGSGTDFTLTISRLEPEDFAVYYCQQYGSTPLFGQGTKVEIK
# B9: ADI-41546 (antibody, V domains shown)
# VH: QVQLVQSGAEVKKPGESLKISCKGSGYSFTNYWIGWVRQMPGKGLEWMGIIFSADSDTRYSPSFQGQVTISADKSISTAYLQWSSLKASDTAMYYCARQWGITGDAFDIWGQGTMVTVSS
# VL: DIQVTQSPSFLSASVGDRVTITCRASQGISGYLAWYQQKPGKAPKLLIYAASTLQSGVPSRFSGSGSGTEFTLTISSLQPEDFATYYCQQLNSYPYTFGQGTKVEIK
# B10: ADI-41525 (antibody, V domains shown)
# VH: QVQLVQSGAEMKKPGSSVKVSCKASGRTFKYFALNWMRRAPGHGLEWIGGDIPISGSTNYAQKFQGRVTITADESASTAYMEVSRLRSDDTAVYYCASLHYDVSTGFSDAFDIWGQGTMVTVSS
# VL: QSVLTQPASVSGSPGQSITISCTGTSSDVGAYNYVSWYQHHPGKAPKLMIFDVSNRPSGVSNRFSGSKSGNTASLTISGLQAEDEADYYCSSYRSTFSYVFGTGTKVTVL
# notes: also called Ab 797; Antibody Number 797
# B11: ADI-41690 (antibody, V domains shown)
# VH: QVQLVQSGAEVKKPGESLRISCKGSGYSFSSHWIGWVRQKPGKGLEWMGIIYPGDSDTRYSPSFQGHVTISADKSISTAYLRWSSLKASDTAIYYCAKRMVGDYYGMNLWGQGTTVTVSS
# VL: EIVMTQSPSSLSASVGDRVTITCQASQDISNRLNWYQQKPGKAPKLLIYDASNLETGVPSRFSGSGSGTDFTFTISSLQPEDIATYFCQQYDYLLWFTFGPGTKVDIK
# notes: also called Ab 893; Antibody Number 893
# B12: ADI-41553 (antibody, V domains shown)
# VH: EVQLVESETEVKKPGASVKVSCKASGYTFTKYGISWVRQAPGQGLEWMGWISAYNGNTMYPHKLLGRVTMTTDTSTSTAYMELRSLRSDDTAVYYCARDQTYYDFWSGYYTYWGQGTLVTVSS
# VL: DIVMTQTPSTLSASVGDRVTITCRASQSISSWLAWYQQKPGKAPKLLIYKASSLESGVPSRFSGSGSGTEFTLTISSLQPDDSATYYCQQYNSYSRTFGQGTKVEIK
# notes: also called Ab 835; Antibody Number 835
# B13: ADI-41805 (antibody, V domains shown)
# VH: QVQLVQSGAEVKKPGESLKISCKASGYSFTSYWIAWVRQMPGKGLEWMGIIFPGDSDTRYSPSFQGQVTISADKSISTAYLQWSSLEASDTAMYYCAKSTTYYYYGLDVWGQGTTVTVSS
# VL: QPVLTQPASVSGSPGQSITISCTGTSSDVGGYDYVSWYQQYPGKAPKLMIYEVSNRPLGVSNRFSGSRSGYTASLTISGLQAEDETNYYCSSYTSSRTWVFGGGTKLTVL
# notes: also called Ab 914; Antibody Number 914
# B14: ADI-41562 (antibody, V domains shown)
# VH: QVQLVQSGAEVKKPGASVRVSCKTSGYAFSKYGISWVRQAPGQGLEWIGWISAYNENTHFSHKFLGRVTMTTDTSTGIAYMDLRSLKSDDTAVYYCARDWYSLGSDWYFGPMFDYWGQGTLVTVSS
# VL: EIVLTQSPDTLSVSPGERATLSCRASQSVTTNLAWYQQKPGHAPRLLIYGASTRATGIPARFSGSGSGTEFTLTISSLQSEDFAIYYCQQYTNWPRTFGQGTKVEIK
# notes: also called Ab 842; Antibody Number 842
# B15: ADI-41556 (antibody, V domains shown)
# VH: EVQLLESGGGLVKPGGSLRLSCAASGFSFSSYSMHWVRQAPGKGLEWVSSISSSSTYIYYADSVKGRFTISRDNAKTSLFLQMNSLRAEDTAVYYCARDPYSSGWYWDWGQGTTVTVSS
# VL: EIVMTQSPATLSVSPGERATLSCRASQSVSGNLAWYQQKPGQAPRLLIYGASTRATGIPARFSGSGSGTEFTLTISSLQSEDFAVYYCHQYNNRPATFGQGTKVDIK
# Biological target: RSV prefusion F (preF), DS-Cav1 (Respiratory Syncytial Virus, UniProt P03420 26-513)
# Test: BLI, IgG on anti-human IgG sensor
row,Binder,binding result
1,B1,no binding
2,B2,no binding
3,B3,no binding
4,B4,no binding
5,B5,no binding
6,B6,no binding
7,B7,no binding
8,B8,no binding
9,B9,no binding
10,B10,no binding

# Biological target: RSV postfusion F (postF), F ΔFP (Respiratory syncytial virus, UniProt P03420 26-513)
# Test: BLI, IgG on anti-human IgG sensor, 100 nM antigen
row,Binder,Kd [nM]
1,B11,8.78
2,B12,0.804
3,B13,2
4,B14,0.676
5,B15,2.28

# Biological target: RSV F on RSV-A2 virus (Respiratory Syncytial Virus (RSV-A2), UniProt P03420 26-574)
# Test: cell-based or functional assay
row,Binder,Neutralization IC50 (RSV subtype A) [µg/mL]
1,B1,> 25
2,B2,> 25
3,B3,> 25
4,B4,> 25
5,B5,> 25
6,B6,0.46
7,B7,> 25
8,B8,> 25
9,B9,> 25
10,B10,> 25

# Biological target: RSV prefusion F (preF), DS-Cav1 (Respiratory syncytial virus, UniProt P03420 26-513)
# Test: BLI, IgG on anti-human IgG sensor
row,Binder,binding result
1,B11,no binding (tested: 100 nM antigen)
2,B12,no binding (tested: 100 nM antigen)
3,B13,no binding (tested: 100 nM antigen)
4,B14,no binding (tested: 100 nM antigen)
5,B15,no binding (tested: 100 nM antigen)

# Biological target: RSV postfusion F (postF), F ΔFP (Respiratory Syncytial Virus, UniProt P03420 26-513)
# Test: BLI, IgG on anti-human IgG sensor, 100 nM antigen, 1:1 fit
row,Binder,Kd [nM]
1,B1,0.505
2,B2,0.605
3,B3,140
4,B4,1.73
5,B5,1.54
6,B6,33.1
7,B7,0.805
8,B8,0.549
9,B9,1.08
10,B10,0.327

# Biological target: RSV F on RSV-A2 virus (Respiratory syncytial virus, RSV-A2, UniProt P03420 26-574)
# Test: cell-based or functional assay
row,Binder,Neutralization IC50 (RSV subtype A) [µg/mL]
1,B11,> 25
2,B12,> 25
3,B13,> 25
4,B14,> 25
5,B15,> 25
